The chains are these.
B2: CCL19_HUMAN (ligand)
chain: GTNDAEDCCLSVTQKPIPGYIVRNFHYLLIKDGCRVPAVVFTTLRGRQLCAPPDQPWVERIIQRLQRTSAKMKRRSS
notes: Biotinylated (detected with streptavidin-Alexa647) in yeast display; AlexaFluor 647 labelled (Almac) in thermophoresis
B7: CCL17_HUMAN (ligand)
chain: ARGTNVGRECCLEYFKGAIPLRKLKTWYQTSEDCSRDAIVFVTVQGRAICSDPNNKRVKNAVKYLQSLERS
notes: as for B2

For one experiment, the target named is T1, CCL11_HUMAN (human, UniProt P51671 24-97).
T1 construct: Biotinylated (detected with streptavidin-Alexa647) in yeast display; AlexaFluor 647 labelled (Almac) in thermophoresis
T1 sequence (P51671 24-97 limits assumed): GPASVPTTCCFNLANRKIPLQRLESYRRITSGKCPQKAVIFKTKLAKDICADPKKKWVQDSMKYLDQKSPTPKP
The experiment is described as follows: yeast surface display library FACS screen, labelled chemokine (col C: isolated in).

Experiment [1] deals with T2, CCL25_HUMAN (human, UniProt O15444 24-150).
T2 construct: Biotinylated (detected with streptavidin-Alexa647) in yeast display; AlexaFluor 647 labelled (Almac) in thermophoresis
T2 sequence: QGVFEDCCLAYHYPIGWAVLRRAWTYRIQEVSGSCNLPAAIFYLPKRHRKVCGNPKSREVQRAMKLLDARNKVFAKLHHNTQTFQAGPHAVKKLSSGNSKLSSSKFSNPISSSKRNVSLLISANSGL
The description is as above.

A further experiment has as its target T3, CCL1_HUMAN (human, UniProt P22362 24-96).
T3 construct: Biotinylated (detected with streptavidin-Alexa647) in yeast display; AlexaFluor 647 labelled (Almac) in thermophoresis
T3 sequence: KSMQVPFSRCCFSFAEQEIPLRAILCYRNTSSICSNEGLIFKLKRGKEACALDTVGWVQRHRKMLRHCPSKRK
Described as above.

The next experiment concerns the target T4, CCL4 (human, UniProt P13236 24-92).
T4 construct: Biotinylated (detected with streptavidin-Alexa647) in yeast display; also called human CCL4
T4 sequence: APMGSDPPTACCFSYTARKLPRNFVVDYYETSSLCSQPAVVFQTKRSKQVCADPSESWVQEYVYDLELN
The experiment is described as follows: yeast surface display FACS re-test, >3 fold MFI over control (col D).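 Note: yeast displaying putative tick Evasins stained with biotinylated human chemokine plus streptavidin-Alexa647, flow cytometry, positive when MFI exceeds 3-fold the empty-vector or no-chemokine background.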

A further experiment concerns the target T5, P991_AMBCA (Amblyomma cajennense, UniProt A0A023FFD0 29-136).
T5 construct: Tick evasin; also called Evasin
T5 sequence: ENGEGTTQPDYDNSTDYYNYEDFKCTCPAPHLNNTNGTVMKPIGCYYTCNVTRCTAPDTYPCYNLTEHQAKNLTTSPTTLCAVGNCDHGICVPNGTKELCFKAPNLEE
The experiment is described as follows: yeast surface display library FACS screen, labelled chemokine (col C: isolated in).

The target of experiment [2] is T6, P1243_AMBAM (Amblyomma americanum, UniProt A0A0C9S461 26-123).
T6 construct: Tick evasin; also called Evasin
T6 sequence: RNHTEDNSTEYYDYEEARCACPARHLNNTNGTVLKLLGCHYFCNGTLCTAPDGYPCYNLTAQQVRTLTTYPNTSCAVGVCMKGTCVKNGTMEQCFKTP
The experiment is described as follows: yeast surface display FACS re-test, >3 fold MFI over control (col D).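 Note: yeast displaying putative tick Evasins stained with biotinylated human chemokine plus streptavidin-Alexa647, flow cytometry, positive when MFI exceeds 3-fold the empty-vector or no-chemokine background.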

Experiment [3] has as its target T7, CCL5_HUMAN (human, UniProt P13501 24-91).
T7 construct: Biotinylated (detected with streptavidin-Alexa647) in yeast display; AlexaFluor 647 labelled (Almac) in thermophoresis
T7 sequence: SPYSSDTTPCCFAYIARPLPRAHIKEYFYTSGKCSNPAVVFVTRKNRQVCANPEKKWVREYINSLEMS
Briefly: yeast surface display library FACS screen, labelled chemokine (col C: isolated in).

A further experiment deals with T8, CXCL8_HUMAN (human, UniProt P10145 28-99).
T8 construct: Biotinylated (detected with streptavidin-Alexa647) in yeast display; AlexaFluor 647 labelled (Almac) in thermophoresis
T8 sequence: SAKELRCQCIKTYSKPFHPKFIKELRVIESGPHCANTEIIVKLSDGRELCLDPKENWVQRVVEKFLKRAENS
Described as above.

The target in another experiment is T9, CXCL10_HUMAN (human, UniProt P02778 22-98).
T9 construct: Biotinylated (detected with streptavidin-Alexa647) in yeast display; AlexaFluor 647 labelled (Almac) in thermophoresis
T9 sequence: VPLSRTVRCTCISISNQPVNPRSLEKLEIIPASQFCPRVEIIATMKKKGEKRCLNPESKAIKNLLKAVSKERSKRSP
Briefly: yeast surface display FACS re-test, >3 fold MFI over control (col D).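 Note: yeast displaying putative tick Evasins stained with biotinylated human chemokine plus streptavidin-Alexa647, flow cytometry, positive when MFI exceeds 3-fold the empty-vector or no-chemokine background.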

For the next experiment, the target named is T10, CCL18_HUMAN (human, UniProt P55774 21-89).
T10 construct: Biotinylated (detected with streptavidin-Alexa647) in yeast display; AlexaFluor 647 labelled (Almac) in thermophoresis
T10 sequence: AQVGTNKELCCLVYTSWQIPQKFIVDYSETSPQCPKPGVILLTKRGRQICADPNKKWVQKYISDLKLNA
The description is as above.

The next experiment has as its target T11, CCL8_HUMAN (human, UniProt P80075 24-99).
T11 construct: Biotinylated (detected with streptavidin-Alexa647) in yeast display; AlexaFluor 647 labelled (Almac) in thermophoresis
T11 sequence: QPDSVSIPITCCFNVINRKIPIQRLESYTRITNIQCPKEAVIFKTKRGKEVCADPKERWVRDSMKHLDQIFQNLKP
The experiment is described as above.

In the experiment “CCL19_HUMAN” the target is B2. Described as above.
Experiment [4] deals with T2, CCL25_HUMAN. The description is as above.
Experiment [5] concerns the target B7. The experiment is described as above.
The target in experiment [6] is T12, CCL20_HUMAN (human, UniProt P78556 27-96).
T12 construct: Biotinylated (detected with streptavidin-Alexa647) in yeast display; AlexaFluor 647 labelled (Almac) in thermophoresis
T12 sequence (P78556 27-96 limits assumed): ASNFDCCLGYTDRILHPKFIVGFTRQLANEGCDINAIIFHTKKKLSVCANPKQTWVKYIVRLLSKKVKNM
Described as above.

Experiment [7] deals with T7, CCL5_HUMAN. Described as above.
The target in a further experiment is T13, CCL22_HUMAN (human, UniProt O00626 25-93).
T13 construct: Biotinylated (detected with streptavidin-Alexa647) in yeast display; AlexaFluor 647 labelled (Almac) in thermophoresis
T13 sequence: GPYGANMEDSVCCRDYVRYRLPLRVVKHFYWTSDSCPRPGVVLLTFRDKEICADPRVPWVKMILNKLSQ
The experiment is described as above.

In experiment [8] the target is B7. Briefly: yeast surface display library FACS screen, labelled chemokine (col C: isolated in).
Experiment [9] concerns the target T12, CCL20_HUMAN. The description is as above.
The next experiment has as its target T14, P974_AMBCA (Amblyomma cajennense, UniProt A0A023FDY8 22-118).
T14 construct: Tick evasin; also called Evasin
T14 sequence: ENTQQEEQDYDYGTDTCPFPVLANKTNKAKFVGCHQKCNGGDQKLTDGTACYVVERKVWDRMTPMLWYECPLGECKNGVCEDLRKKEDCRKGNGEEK
Described as above.

Experiment [10] concerns the target T6, P1243_AMBAM. Described as above.
In experiment [11] the target is T15, P546_AMBCA (Amblyomma cajennense, UniProt A0A023FBW7 22-118).
T15 construct: Tick evasin; also called Evasin
T15 sequence: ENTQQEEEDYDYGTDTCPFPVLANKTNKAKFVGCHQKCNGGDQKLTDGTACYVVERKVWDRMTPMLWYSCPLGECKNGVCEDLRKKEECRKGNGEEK
Briefly: yeast surface display FACS re-test, >3 fold MFI over control (col D).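 Note: yeast displaying putative tick Evasins stained with biotinylated human chemokine plus streptavidin-Alexa647, flow cytometry, positive when MFI exceeds 3-fold the empty-vector or no-chemokine background.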

The target in experiment [12] is T15, P546_AMBCA. The experiment is described as follows: microscale thermophoresis, AlexaFluor 647 labelled chemokine. On the technique in general: In MST a laser heats a spot of the sample, and binding alters the fluorescence response.
The next experiment concerns the target T16, P467_RHIPU (Rhipicephalus pulchellus, UniProt L7M8Z8 22-127).
T16 construct: Tick evasin; also called Evasin
T16 sequence: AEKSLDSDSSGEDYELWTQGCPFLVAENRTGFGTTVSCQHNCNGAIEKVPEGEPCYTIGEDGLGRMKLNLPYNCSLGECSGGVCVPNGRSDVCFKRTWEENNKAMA
The experiment is described as follows: yeast surface display library FACS screen, labelled chemokine (col C: isolated in).

The target of another experiment is T17, P1181_AMBMA (Amblyomma maculatum, UniProt G3MIX6 26-115).
T17 construct: Tick evasin; also called Evasin
T17 sequence: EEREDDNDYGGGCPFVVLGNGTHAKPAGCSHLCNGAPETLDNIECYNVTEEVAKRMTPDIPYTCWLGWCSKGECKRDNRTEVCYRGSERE
The description is as above.

The target in another experiment is T18, P1182_AMBMA (Amblyomma maculatum, UniProt G3MJ83 27-115).
T18 construct: Tick evasin; also called Evasin
T18 sequence: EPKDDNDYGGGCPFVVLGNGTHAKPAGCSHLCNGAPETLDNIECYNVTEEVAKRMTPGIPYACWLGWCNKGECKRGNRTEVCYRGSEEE
The experiment is described as above.

B1: P1014_AMBCA (other)
chain: DIIGGIPGCGDPTTTSAPEVPPKHFAVRTDKDGCTLMIIGTWMTTEDHNRLPPDIGEKRAPYGRVQLPASCKKNCHGKVKNLPNGTPCREVFGDPRRGRKHIKNGCTVGKCQSGLCVTDKRIISCYIPPNITDPIPTHGPWAE
notes: Tick evasin; also called Evasin
As to B1, the binding result in the experiment with CCL11_HUMAN, with CCL25_HUMAN [1], with CCL1_HUMAN and in the experiment with CCL4 was “binds” each time.
Consider B2, for which the binding result with P991_AMBCA and with P1243_AMBAM [2] was “binds” each time.

B3: P1209_AMBPA (other)
chain: KTDTKNAAGELPPKVAIPGCEDPATTKAPLPDDPRYYGVTIDKDGCQRKVLGSSQRQQRQVQNGRKPGRKGRGRRPVFVDLKLTVDCKRKCNGTYSQLPDGEPCLVCDGEPYGRHRTIKGGCYQGNCSSGQCHRGERKVNCYIPKNITNNVLNSVNLAE
notes: as for B1
In the case of B3, the binding result in the experiment with CCL5_HUMAN [3], with CXCL8_HUMAN, with CCL11_HUMAN, in the experiment with CCL1_HUMAN, with CXCL10_HUMAN and with CCL18_HUMAN was “binds” each time. In addition, the binding result with CCL8_HUMAN, with CCL19_HUMAN, in the experiment with CCL25_HUMAN [4], with CCL17_HUMAN [5] and in the experiment with CCL20_HUMAN [6] was “binds” in each case.

B4: P1006_AMBCA (other)
chain: DTIGGIPGCGDPATTSAPEDQPKHYAVRTDKNGCKVMVIGTWMTKEDHNLLPPYISKERAPSGKVQLPASCKKNCHGKLKNLPNGTPCREVFGDLRRRRKHIKDGCKVGKCQNGLCVSEERIISCYLPPNITDPRPTHGPLAE
notes: as for B1
Consider B4, for which the binding result with CXCL8_HUMAN, with CCL11_HUMAN, with CCL25_HUMAN [1], in the experiment with CCL1_HUMAN, in the experiment with CCL5_HUMAN [7] and with CCL19_HUMAN was “binds” throughout. Also, in the experiment with CCL22_HUMAN, the binding result is listed as “binds”.

B5: P1252_AMBAM (other)
chain: RGGAASVPANASIPGCGDAQTTPAAPEDQPKHYVVYRDGNGCEVKIIGTWMTTEDYNCLPDTFRKNRAPHGKVKLPASCKKTCGNAVQNLKDGTPCRKVFGDLGRRRNLIKNGCLVGACQSGLCVSGNRTISCYIPPNSTDTRATPGSFAE
notes: as for B1
Turning to B5, the binding result with CCL11_HUMAN, in the experiment with CCL17_HUMAN [8] and with CCL20_HUMAN [9] was “binds” throughout.

B6: P993_AMBPA (other)
chain: HRHYDPNEPCLIAGLKTPRDALPAGCRYDCMIKKNQKLRDGLLCLDVPEKVVKRMVNYLNYSCPLGTCRKGICKRKHRNVRCQKYPVFYMSPPK
notes: Tick evasin
Regarding B6, the binding result in the experiment with CXCL8_HUMAN, with CCL11_HUMAN, with CCL25_HUMAN [1], with CCL17_HUMAN [8], in the experiment with CCL1_HUMAN and in the experiment with CCL20_HUMAN [9] was “binds” in each case. Moreover, the binding result in the experiment with CCL5_HUMAN [7] is “binds”.
With B7, the binding result with P974_AMBCA, in the experiment with P1243_AMBAM [10], in the experiment with P991_AMBCA and with P546_AMBCA [11] was “binds” throughout.

B8: CCL3_HUMAN (ligand)
chain: SLAADTPTACCFSYTSRQIPQNFIADYFETSSQCSKPGVIFLTKRSRQVCADPSEEWVQKYVSDLELSA
notes: as for B2
One may read the Kd as the constant that tells how readily two partners part at equilibrium. Molecule B8 came in with a Kd with P546_AMBCA [12] of 171 nM. For the same molecule, the binding result with P467_RHIPU, with P1181_AMBMA, with P1182_AMBMA and with P1243_AMBAM [2] was “binds” throughout.
